The source of these data is article PMC9884143 (The Journal of Biological Chemistry, 2023).

Test [1] addresses SARS-CoV-2 Spike receptor-binding domain (RBD), B.1.1.529 (Omicron) variant (SARS-CoV-2, Omicron B.1.1.529 (BA.1 RBD), strain).
For test [2], the target named is SARS-CoV-2 Spike receptor-binding domain (RBD), Delta variant (SARS-CoV-2, Delta (B.1.617.2; L452R, …, strain).

B1: CoV2-YD-14 (VHH)
VHH: QVQLVESGGGLVQAGGSLRLSCSASGNTFSTYSLSWYRQAPGKQREFVAAISSGGSTSYANSVKGRFSISRDNAKKTMYLQMNSLKPEDTAVYYCYVVTTLMDYWGQGTQVTVS
Molecule B1 came in with a Kd in test [1] of 0.655 nM. This counts as sub-nanomolar.

B2: CoV2-YD-11 (VHH)
VHH: QVQLVESGGGLVQAGGSLRLSCVVSGTTFSRYDMGWYRQAPGKARETVATISRSGTTNYAYFVKGRFTITRDNAKNTVYLQMNSLKPEDTAVYYCYIFGLDYWGQGTQVTVS
In test [1], B2 showed a Kd of 0.721 nM.

B3: CoV2-YD-12 (VHH)
VHH: QVQLVESGGGLVQAGGSLRLSCAASGSTFSRLNILWWRQAAGKPREWVATSTDGGTRNYAAAVKGRFTISRDNAKNTVYLQMNSLKPEDTAVYYCYTPDYWGQGTQVTVS
Consider B3, for which the Kd in test [1] was determined as 0.416 nM.

B4: CoV2-YD-13 (VHH)
VHH: QVQLVESGGGLVQAGGSLRLSCAASGFTFDDYAIGWFRQAPGKEREGVSCISSSGGFTNYADSVKGRFTISSDNAKNTVYLQMNSLKPEDTAVYYCAVVVNGYGLDEWAYDYWGQGTQVTVS
Regarding B4, the figures for the Kd in test [2] and in test [1] were 45.4 nM and 3.64 nM, respectively.

B5: CoV2-YD-5 (VHH)
VHH: QVQLVESGGGLVQAGGSLRLSCVASGTTISTYNLLWFRQAPGQQREWVASISSGGDTSYAGSVKGRFTISRDNTENTMYLQMNSLKPEDTAVYYCHGANAAHGMDYWGKGTQVTVS
Turning to B5, in test [1], the affinity, expressed as Kd, was 0.66 nM.

B6: CoV2-YD-35 (VHH)
VHH: DVQLVESGGGLVQAGDSLRLSCTASGRTFTTNAMGWFRQAPGKEREFVAAISWSYGTTYYSDPVEGRFTISRSNAKNTVYLQMNSLKPDDTAVYYCTLRSRFNAAAWTTEAAFDYWGQGTQVTVS
With B6, the equilibrium dissociation constant (Kd) in test [2] was determined as 0.185 nM; in test [1], 0.465 nM.

B7: CoV2-YD-37 (VHH)
VHH: DVQLVESGGGLVQAGDSLRLSCTASGRTFTTNAMGWFRQAPGKEREFVAAISWNYDTTYYSDPVEGRFTISRSNAKNTVYLQMNSLKPDDTAVYYCTLRSRFNAAAWTTEAAFDYWGQGTQVTVS
Take B7: the Kd in test [2] stood at 2.4 nM; in test [1], 1.56 nM.

B8: CoV2-YD-36 (VHH)
VHH: QVQLVESGGGLVQAGDSLRLSCTASGRTFTTNAMGWFRQAPGKEREFVAAITWSYGTTYYSDPVEGRFTISRSNAKNTVYLQMNSLKPDDTAVYYCTLRSRFNAAAWTTEAAFDYWGQGTQVTVS
On to B8, for which the Kd was 0.022 nM in test [2] and 0.263 nM in test [1].

B9: CoV2-YD-38 (VHH)
VHH: DVQLVESGGGLVQAGDSLRLSCAASGRTFTTNAMGWFRQAPGKEREFVAAISWNSGTTYYSDPVKGRFTISRDNAKNTVYLQMNSLKPGDTAVYYCTLRSRFNAYAWTTENAFDYWGQGTQVTVS
As for B9, the results for the Kd in test [2] and in test [1] were 0.256 nM and 2.82 nM, respectively.

B10: Rescue-1 (VHH)
VHH: DVQLVESGGGLVQAGDSLRLSCTASGRTFTTNAMGWFRQAPGKEREFVAAITWSYGTTYYSDPVEGRFTISRDNAKNTVYLQMNSLKPEDTAVYYCFYERLAWDTSTYWGQGTQVTVS
In the case of B10, the Kd in test [2] worked out at 14.1 nM; in test [1], 7.02 nM.

B11: Rescue-2 (VHH)
VHH: DVQLVESGGGLVQAGDSLRLSCTASGRTFTTNAMGWFRQAPGKEREFVAAISWNYDTTYYSDPVEGRFTISRDNAKNTVYLQMNSLKPEDTAVYYCFYERLAWDTSTYWGQGTQVTVS
Turning to B11, the Kd was determined as 11.2 nM in test [2] and 27 nM in test [1].

B12: Rescue-3 (VHH)
VHH: DVQLVESGGGLVQAGDSLRLSCTASGRTFTTNAMGWFRQAPGKEREFVAAISWNSGTTYYSDPVKGRFTISRDNAKNTVYLQMNSLKPEDTAVYYCFYERLAWDTSTYWGQGTQVTVS
As to B12, the Kd in test [2] is 27.1 nM; in test [1] it was 60.6 nM.

A word on the Kd: it is the constant that tells how readily two partners part at equilibrium. Lower therefore signals tighter binding.
